From publication PMC5203670, “Biosynthesis of selenate reductase in Salmonella enterica: critical roles for the signal peptide and DmsD” (Microbiology, 2016)
Read-outs that look alike come from different tables or passages of the source.

What was measured:
[1] = molecular target: YnfE signal peptide (Salmonella enterica); settings: cited from earlier work
[2] = molecular target: T25-DmsD fusion protein (S. enterica DmsD attached to the C-terminus of T25) (Salmonella enterica serovar Typhimurium) (UniProt Q8ZPK0); test: two-hybrid; bacterial adenylate cyclase two-hybrid (spYnfE-T18 and T25-DmsD) in E. coli MAE01 (ΔcyaA); cultures at 30 °C, β-galactosidase activity in Miller units, shown relative to the native pair
[3] = molecular target: T25-DmsD fusion protein (S. enterica DmsD attached to the C-terminus of T25) (Salmonella enterica serovar Typhimurium) (UniProt Q8ZPK0); test: as above; remark: listed apart in the source
[4] = molecular target: the molecule itself; test: cross-linking; 1 % (v/v) formaldehyde, purified DmsD (2 µM) with or without synthetic peptide 2 (100 µM), 30 min, 50 mM HEPES pH 7.6, 150 mM KCl; SDS-PAGE and anti-DmsD immunoblot

Sequence of YnfE signal peptide (Salmonella enterica) (P77374 1-43): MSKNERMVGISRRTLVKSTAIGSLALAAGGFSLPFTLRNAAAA

**Q.** For DmsD (from UniProt Q8ZPK0), which Kd [1] is on record?
**A.** The Kd was 45 nM.

**Q.** Which results are given for “spYnfE-T18 fusion (42-residue YnfE Tat signal peptide at the N-terminus of T18) (domain or fragment)”?
**A.** β-galactosidase activity (positive control, 100 %) [2]: 1650 Miller units; β-galactosidase activity (positive control, 100 %) [3]: 1720 Miller units

B1: Recombinant S. enterica DmsD, purified, hexa-histidine tag removed (natural protein, Salmonella enterica serovar Typhimurium, UniProt Q8ZPK0 1-204, looked up)
chain: MTTFLQRDDFAVTARVLGALFYYSPESHETAPLVQALLNDDWQAQWPLDAEALAPVAAMFKTHSEESLPQAWQRLFIGPYALPSPPWGSVWLDRESVLFGDSTLALRQWMRENGIQFEMQQNEPEDHFGSLLLLAAWLAENDRHHECEQLLAWHLFPWSSRFLDVFIDHAGHPFYQALGQLARLTLAQWQAQLIIPVAVKPLFR
notes: DmsD of S. enterica serovar Typhimurium, 204 residues; The forward primer encodes ENLYFQG before the first methionine; also called purified DmsD; pQE-His-TEV-DmsDst; not shown: His6, N-terminal, cleaved
**Q.** For B1, which “stoichiometry N” value [4] is on record?
**A.** The value was 2.
